T1: eIF2Bε (Saccharomyces cerevisiae, UniProt P32501 1-712)
T1 construct: eIF2Bε, S. cerevisiae; Subunit of m2 as it stood in the eIF2B-eIF2(αP) complex; the ε-cat HEAT domain was not included in any model; also called eIF2B ε subunit; source: over-expressed in S. cerevisiae strain GP4109, purified as part of Flag-tagged eIF2B
T1 sequence: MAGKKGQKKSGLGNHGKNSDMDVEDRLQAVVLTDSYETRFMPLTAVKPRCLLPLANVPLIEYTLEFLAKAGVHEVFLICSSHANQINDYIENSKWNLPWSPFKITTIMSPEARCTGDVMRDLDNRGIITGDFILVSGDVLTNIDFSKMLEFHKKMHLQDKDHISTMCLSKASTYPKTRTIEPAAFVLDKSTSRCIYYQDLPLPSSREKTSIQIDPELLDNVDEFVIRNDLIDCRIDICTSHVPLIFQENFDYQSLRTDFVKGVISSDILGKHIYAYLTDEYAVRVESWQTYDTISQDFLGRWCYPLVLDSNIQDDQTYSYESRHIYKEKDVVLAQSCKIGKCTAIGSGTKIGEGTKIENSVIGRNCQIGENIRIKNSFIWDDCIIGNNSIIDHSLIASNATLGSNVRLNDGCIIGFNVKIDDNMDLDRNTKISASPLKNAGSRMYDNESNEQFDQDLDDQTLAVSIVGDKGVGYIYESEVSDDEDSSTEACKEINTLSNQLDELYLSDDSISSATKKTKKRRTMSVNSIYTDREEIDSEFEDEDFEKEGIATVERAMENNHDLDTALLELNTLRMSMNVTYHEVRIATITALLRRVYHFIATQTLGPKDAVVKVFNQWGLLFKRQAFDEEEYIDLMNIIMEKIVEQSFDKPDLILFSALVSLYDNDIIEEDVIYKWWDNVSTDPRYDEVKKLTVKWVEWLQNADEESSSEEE

T2: eIF2Bβ (Saccharomyces cerevisiae, UniProt P32502 1-381)
T2 construct: eIF2Bβ, S. cerevisiae; Subunit of m2 as it stood in the eIF2B-eIF2(αP) complex; also called eIF2B β subunit; source: over-expressed in S. cerevisiae strain GP4109, purified as part of Flag-tagged eIF2B
T2 sequence: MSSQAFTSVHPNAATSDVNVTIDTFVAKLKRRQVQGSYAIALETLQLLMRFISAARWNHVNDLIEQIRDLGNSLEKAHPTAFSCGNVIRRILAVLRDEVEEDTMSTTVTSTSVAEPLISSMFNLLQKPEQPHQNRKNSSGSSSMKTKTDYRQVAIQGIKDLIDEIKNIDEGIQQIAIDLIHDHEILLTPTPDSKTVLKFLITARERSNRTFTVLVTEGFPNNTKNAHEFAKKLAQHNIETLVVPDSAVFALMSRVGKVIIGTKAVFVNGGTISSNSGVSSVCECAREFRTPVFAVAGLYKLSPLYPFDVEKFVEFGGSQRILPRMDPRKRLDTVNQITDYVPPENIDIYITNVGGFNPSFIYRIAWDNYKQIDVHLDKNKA

T3: eIF2Bδ (Saccharomyces cerevisiae, UniProt P12754 1-651)
T3 construct: eIF2Bδ, S. cerevisiae; Subunit of m2 as it stood in the eIF2B-eIF2(αP) complex; also called eIF2B δ subunit; source: over-expressed in S. cerevisiae strain GP4109, purified as part of Flag-tagged eIF2B
T3 sequence: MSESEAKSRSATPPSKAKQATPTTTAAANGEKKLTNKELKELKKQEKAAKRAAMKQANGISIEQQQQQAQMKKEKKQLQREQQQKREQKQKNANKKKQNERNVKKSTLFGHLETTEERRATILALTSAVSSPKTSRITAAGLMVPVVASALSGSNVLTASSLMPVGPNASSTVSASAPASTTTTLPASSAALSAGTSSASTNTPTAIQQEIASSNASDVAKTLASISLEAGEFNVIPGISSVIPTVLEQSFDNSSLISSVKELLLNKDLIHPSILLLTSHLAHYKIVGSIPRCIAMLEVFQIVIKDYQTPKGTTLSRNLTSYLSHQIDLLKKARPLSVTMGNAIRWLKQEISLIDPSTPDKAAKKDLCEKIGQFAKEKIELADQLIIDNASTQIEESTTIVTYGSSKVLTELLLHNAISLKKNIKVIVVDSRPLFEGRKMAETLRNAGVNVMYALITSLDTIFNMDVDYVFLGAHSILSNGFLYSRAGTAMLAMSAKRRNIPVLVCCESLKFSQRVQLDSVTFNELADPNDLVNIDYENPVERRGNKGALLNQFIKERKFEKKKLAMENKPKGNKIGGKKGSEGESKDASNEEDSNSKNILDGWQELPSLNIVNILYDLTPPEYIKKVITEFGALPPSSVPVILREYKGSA

B1: eIF2Bγ (natural protein, Saccharomyces cerevisiae)
chain: MSIQAFVFCGKGSNLAPFTQPDFPFQTQNKDSTAATSGDKLNELVNSALDSTVINEFMQHSTRLPKALLPIGNRPMIEYVLDWCDQADFKEISVVAPVDEIELIESGLTSFLSLRKQQFELIYKALSNSNHSHHLQDPKKINFIPSKANSTGESLQKELLPRINGDFVILPCDFVTDIPPQVLVDQFRNRDDNNLAMTIYYKNSLDSSIDKKQQQKQKQQQFFTVYSENEDSERQPILLDVYSQRDVTKTKYLQIRSHLLWNYPNLTVSTKLLNSFIYFCSFELCQLLKLGPQSMSRQASFKDPFTGNQQQQNPPTTDDDEDRNHDDDDDYKPSATSIQPTYFKKKNDLILDPINCNKSLSKVFRDLSRRSWQHSKPREPIGIFILPNETLFIRANNLNAYMDANRFVLKIKSQTMFTKNIQIQSAAIGADAIVDPKCQISAHSNVKMSVLGTQANIGSRCRVAGSLLFPGVHLGDEVILENCIIGPMAKIGSKCKLSNCYIEGHYVVEPKNNFKGETLANVYLDEDEEDELIYDDSVIAGESEIAEETDSDDRSDEDSDDSEYTDEYEYEDDGLFER
notes: eIF2Bγ, S. cerevisiae; Subunit of m2 as it stood in the eIF2B-eIF2(αP) complex; also called eIF2B γ subunit; source: over-expressed in S. cerevisiae strain GP4109, purified as part of Flag-tagged eIF2B
B2: eIF2Bα (natural protein, Saccharomyces cerevisiae)
chain: MSEFNITETYLRFLEEDTEMTMPIAAIEALVTLLRIKTPETAAEMINTIKSSTEELIKSIPNSVSLRAGCDIFMRFVLRNLHLYGDWENCKQHLIENGQLFVSRAKKSRNKIAEIGVDFIADDDIILVHGYSRAVFSLLNHAANKFIRFRCVVTESRPSKQGNQLYTLLEQKGIPVTLIVDSAVGAVIDKVDKVFVGAEGVAESGGIINLVGTYSVGVLAHNARKPFYVVTESHKFVRMFPLSSDDLPMAGPPLDFTRRTDDLEDALRGPTIDYTAQEYITALITDLGVLTPSAVSEELIKMWYD
notes: eIF2Bα, S. cerevisiae; Subunit of m2 as it stood in the eIF2B-eIF2(αP) complex; also called eIF2B α subunit; source: over-expressed in S. cerevisiae strain GP4109, purified as part of Flag-tagged eIF2B

What was measured:
Assay in all cases: cryo-EM structure; eIF2(αP) with 2 mM GDP added to Flag-tagged eIF2B immobilised on Anti-Flag M2 gel, eluted with 3XFlag-peptide; 20 mM Hepes (pH 7.5), 100 mM KCl, 5 mM MgCl2, 5 mM β-ME; diluted to ~200 nM with 0.1% glutaraldehyde; six maps, 4.2 to 10.4 Å
Conditions in all cases: both partners purified
eIF2Bε = molecular target: T1, eIF2Bε
eIF2Bγ = molecular target: B1
eIF2Bβ = molecular target: T2, eIF2Bβ
eIF2Bδ = molecular target: T3, eIF2Bδ
eIF2Bα = molecular target: B2

| Binder | binding result (eIF2Bε) | binding result (eIF2Bγ) | binding result (eIF2Bβ) | further results |
| --- | --- | --- | --- | --- |
| eIF2β (natural protein, Saccharomyces cerevisiae, UniProt P09064 1-285, looked up, eIF2β, S. cerevisiae; Subunit of m1 as it stood in the eIF2B-eIF2(αP) complex; also called eIF2 β subunit; source: purified from S. cerevisiae strain GP3511 as part of eIF2) MSSDLAAELGFDPALKKKKKTKKVIPDDFDAAVNGKENGSGDDLFAGLKKKKKKSKSVSADAEAEKEPTDDIAEALGELSLKKKKKKTKDSSVDAFEKELAKAGLDNVDAESKEGTPSANSSIQQEVGLPYSELLSRFFNILRTNNPELAGDRSGPKFRIPPPVCLRDGKKTIFSNIQDIAEKLHRSPEHLIQYLFAELGTSGSVDGQKRLVIKGKFQSKQMENVLRRYILEYVTCKTCKSINTELKREQSNRLFFMVCKSCGSTRSVSSIKTGFQATVGKRRRM | binds | binds |  |  |
| B1 | binds |  |  |  |
| B2 |  |  | binds |  |
| eIF2γ (natural protein, Saccharomyces cerevisiae, UniProt P32481 1-527, looked up, eIF2γ, S. cerevisiae; Subunit of m1 as it stood in the eIF2B-eIF2(αP) complex; also called eIF2 γ subunit; source: purified from S. cerevisiae strain GP3511 as part of eIF2) MSDLQDQEPSIIINGNLEPVGEPDIVEETEVVAQETQETQDADKPKKKVAFTGLEEDGETEEEKRKREFEEGGGLPEQPLNPDFSKLNPLSAEIINRQATINIGTIGHVAHGKSTVVRAISGVQTVRFKDELERNITIKLGYANAKIYKCQEPTCPEPDCYRSFKSDKEISPKCQRPGCPGRYKLVRHVSFVDCPGHDILMSTMLSGAAVMDAALLLIAGNESCPQPQTSEHLAAIEIMKLKHVIILQNKVDLMREESALEHQKSILKFIRGTIADGAPIVPISAQLKYNIDAVNEFIVKTIPVPPRDFMISPRLIVIRSFDVNKPGAEIEDLKGGVAGGSILNGVFKLGDEIEIRPGIVTKDDKGKIQCKPIFSNIVSLFAEQNDLKFAVPGGLIGVGTKVDPTLCRADRLVGQVVGAKGHLPNIYTDIEINYFLLRRLLGVKTDGQKQAKVRKLEPNEVLMVNIGSTATGARVVAVKADMARLQLTSPACTEINEKIALSRRIEKHWRLIGWATIKKGTTLEPIA |  | binds |  |  |
| eIF2α phosphorylated at Ser51 (natural protein, Saccharomyces cerevisiae, UniProt P20459 1-304, looked up, phosphoserine at 51 (52 sequence numbering); measured by mass spectrometry to be 89.4%, eIF2α, S. cerevisiae; Subunit of m1 as it stood in the eIF2B-eIF2(αP) complex; also called eIF2(αP) α subunit; source: purified from S. cerevisiae strain GP3511 as part of eIF2; phosphorylated in vitro by human PKR (Invitrogen)) MSTSHCRFYENKYPEIDDIVMVNVQQIAEMGAYVKLLEYDNIEGMILLSELSRRRIRSIQKLIRVGKNDVAVVLRVDKEKGYIDLSKRRVSSEDIIKCEEKYQKSKTVHSILRYCAEKFQIPLEELYKTIAWPLSRKFGHAYEAFKLSIIDETVWEGIEPPSKDVLDELKNYISKRLTPQAVKIRADVEVSCFSYEGIDAIKDALKSAEDMSTEQMQVKVKLVAAPLYVLTTQALDKQKGIEQLESAIEKITEVITKYGGVCNITMPPKAVTATEDAELQALLESKELDNRSDSEDDEDESDDE |  |  | binds | binding result (eIF2Bδ): binds; binding result (eIF2Bα): binds |
